The target in assay [1] is human CD3 epsilon (human) (UniProt P07766). Description: cell-based or functional assay.
For a further assay, the target named is human CD20 (human) (UniProt P11836). Description: cell-based or functional assay.

We go through one substance from US20240400685A1.

human CD3 epsilon (human), sequence (P07766 23-207): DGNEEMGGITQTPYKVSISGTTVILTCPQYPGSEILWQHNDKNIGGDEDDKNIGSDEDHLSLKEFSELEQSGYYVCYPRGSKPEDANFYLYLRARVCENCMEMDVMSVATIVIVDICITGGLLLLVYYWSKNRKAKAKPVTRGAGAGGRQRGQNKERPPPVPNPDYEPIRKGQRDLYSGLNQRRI
human CD20 (human), sequence (P11836 whole entry): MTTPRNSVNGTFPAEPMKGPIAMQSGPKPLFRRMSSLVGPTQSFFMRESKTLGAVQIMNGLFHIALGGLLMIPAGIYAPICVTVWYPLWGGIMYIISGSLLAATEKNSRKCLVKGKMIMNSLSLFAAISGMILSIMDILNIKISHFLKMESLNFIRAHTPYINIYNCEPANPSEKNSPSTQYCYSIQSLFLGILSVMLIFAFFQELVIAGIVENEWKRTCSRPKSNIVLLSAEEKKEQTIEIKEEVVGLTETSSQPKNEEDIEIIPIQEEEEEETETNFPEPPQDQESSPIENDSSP

With “epcoritamab LMWS fraction (Fc+Fab fragment)”, the biological activity, T-cell activation assay (in assay [1]; in the assay with human CD20 (human)) was 40% throughout.
